Experimental data reported in US20140030274A1 (ALPHABETA, published 2014).

T1: KKVVVVVKK
T1 construct: Substrate peptide; also called V5; KKV5KK
T1 peptide: KKVVVVVKK

T2: KKVVVVVVVKK
T2 construct: Substrate peptide; also called V7; KKV7KK
T2 peptide: KKVVVVVVVKK

T3: KKAAAAAAAKK
T3 construct: Non-substrate peptide; also called A7; KKA7KK
T3 peptide: KKAAAAAAAKK


How the values were obtained:
Aβ(M1-42) = Aβ(M1-42) (human); assay: cell-based or functional assay
Aβ(M1-40) [1] = target: Aβ(M1-40) (human); assay: cell-based or functional assay
Aβ(M1-40) [2] = target: T4, Aβ(M1-40) (human); assay: estimate from peak shapes in gel filtration (intermediate exchange on the gel filtration time scale)
T4 construct: Expressed in E. coli from a synthetic gene, and the monomer was isolated by gel filtration; also called Aβ40; human Aβ1-40 peptide
T4 sequence (peptide, as listed by the source): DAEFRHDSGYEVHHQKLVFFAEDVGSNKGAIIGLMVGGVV
Experimental: Samples were injected from a 1 mL loop and chromatograms recorded by monitoring the absorbance at 280 nm. To monitor protein interactions, mixtures of Aβ and BRICHOS domains were injected directly after mixing or after 2 or 20 hours incubation at 37° C. in 20 mM Na-phosphate, 200 μM EDTA, 0.02% NaN₃ at pH 7.4 or pH 8.0. Fractions (0.3-0.7 ml) were collected during the chromatogram, lyophilized and analyzed by SDS PAGE in a 10-20% gradient gel.
The interaction between the BRICHOS proteins and Aβ was studied using gel filtration. Samples of 8 μM Aβ40 and 0.8 μM proSP-C BRICHOS, or 8 μM Aβ40 and 0.8 μM Bri2 BRICHOS, were incubated for 20 hours at 37° C., followed by gel filtration on a Superdex75 column, and SDS PAGE analysis of collected fractions.
The 20 h time point was chosen for investigating potential interactions between the BRICHOS protein and Aβ, because at this time point Aβ alone would have fibrillated and reached the equilibrium plateau, whereas samples containing 0.1 molar equivalent of proSP-C or Bri2 BRICHOS are still in the lag phase (c.f. FIG. 9). The data in FIG. 11 show clearly that at this time point almost all of Aβ40 is monomeric, while a minor fraction elutes together with proSP-C BRICHOS in fractions 2-6. Similar results are observed for 8 μM Aβ40 and 0.8 μM Bri2 BRICHOS (FIG. 12B). […]

KKVVVVVKK = target: T1, KKVVVVVKK; assay: HDX-MS, 30 µM CTC and 40 µM peptide
Experimental: (§1) Deuterated buffers were prepared by three rounds of freeze-drying of the 1 M stock Tris buffer, pH 8, and reconstitution in 99.9% D₂O (Cambridge Isotopes, Andover, Mass.) to a final Tris concentration of 20 mM. To start the incubation at 22° C., CTC (CTproSP-C) stock solution with a concentration of 0.9 mM was diluted in deuterated Tris buffer to a final deuterium content of 92.5%. For CTC/peptide and proSP-C BRICHOS/peptide interaction studies, KKV₇KK, KKV₅KK, or KKA₇KK were pre-incubated with either Tris buffer or proteins, for 10 min at 22° C., and subsequently diluted in deuterated Tris buffer. Final concentrations were 30 μM CTC or proSP-C BRICHOS and 40 μM peptide. The deuterium content was 92.5%. Aliquots of 20 μl were collected in triplicates from three separate incubations after 1, 5, 10, 30, and 60 min. Fully deuterated protein was prepared by freeze-drying a sample of CTC, followed by resuspension in 99.9% D₂O and incubation for 4 h at 50° C. Deuterium exchange was quenched by transferring aliquots to pre-chilled Eppendorf tubes containing 0.5 μL 5% trifluoroacetic acid (TFA) (Merck, Darmstadt, Germany), vortexing, and freezing in liquid nitrogen. Samples were kept in liquid nitrogen until analyzed.
(§2) Aliquots of deuterated CTC were thawed and injected into an HPLC system using a pre-chilled Hamilton syringe. The system was submersed in an ice bath during analysis. […]

KKVVVVVVVKK = target: T2, KKVVVVVVVKK; assay: HDX-MS, 30 µM CTC and 40 µM peptide
Experimental: as §1, §2

KKAAAAAAAKK = target: T3, KKAAAAAAAKK; assay: HDX-MS
Experimental: as §1, §2

[3] = target: the molecule itself; assay: crystal structure, subunit to subunit in the homotrimer
Experimental: Crystals suitable for structure determination were obtained within weeks by means of in situ proteolysis with trypsin. […] The structure presented herein was derived from crystals of seleno-methionylated protein, obtained using the sitting-drop method at 293 K and 277 K, in various concentrations ranging between 0.3-0.7 mM. A single crystal belonging to space group C2 (a=132.05 Å, b=39.33 Å, c=114.76 Å, β=99.6°) was grown from 0.1 M Bis-Tris pH 6.5 and 20% (w/v) PEG MME 5K. The crystal was soaked in 30% (w/v) PEG 400, flash-frozen in liquid nitrogen and used for data collection.
Data to 2.1 Å were collected at the European Synchrotron Radiation Facility, France, using an ADSC Q315 detector on the ID23eh1 beam line. All data were processed in MOSFLM12 and scaled in SCALA13. Data are essentially 100% complete to 2.3 Å Bragg spacing, then drop off rapidly and are only ˜60% complete in the outer resolution shell to 2.1 Å.

Sequence of Aβ(M1-42) (human) (peptide, as listed by the source): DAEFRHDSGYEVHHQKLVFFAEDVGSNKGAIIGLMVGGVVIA

| ten-fold increase in lag time of Aβ42 aggregation (ThT fluorescence) (Aβ(M1-42)) | 10-fold increase in lag time of Aβ40 aggregation (ThT fluorescence) (Aβ(M1-40) [1]) | molar ratio above which the lag time of Aβ40 aggregation exceeds one week (Aβ(M1-40) [1]) | koff (Aβ(M1-40) [2]) | ratio above which Aβ40 aggregation does not occur within one week (Aβ(M1-40) [1]) | binding result (KKVVVVVKK) | binding result (KKVVVVVVVKK) | Binder | binding result (KKAAAAAAAKK) | binding result [3] |
| --- | --- | --- | --- | --- | --- | --- | --- | --- | --- |
| ~0.6 molar equivalents | ~0.01 equivalents | 0.025 molar ratio | 0.001 to 0.01 s⁻¹ | – | – | – | Bri2 BRICHOS (recombinant human Bri2 BRICHOS construct as described in Peng et al. 2010) (other, also called Bri2 BRICHOS domain; BRICHOS protein) GIKYIKDDVILNEPSADAPAALYQTIEENIKIFEEEEVEFISVPVPEFADSDPANIVHDFNKKLTAYLDLNLDKCYVIPLNTSIVMPPRNLLELLINIKAGTYLPQSYLIHEHMVITDRIENIDHLGFFIYRLCHDKETYKLQRRET | – | – |
| ~0.6 molar equivalents | ~0.03 equivalents | 0.06 molar ratio | 0.001 to 0.01 s⁻¹ | 10 Aβ40 molecules per 1 proSP-C BRICHOS | – | – | proSP-C BRICHOS (recombinant human, His59 to Ile197 of proSP-C, Examples 4-8) (other, Expressed in E. coli, with the thioredoxin and His6-tag removed by thrombin; Gel filtration indicates a trimer at 0 h and monomers eluting with Aβ after 20 h; also called recombinant human proSP-C BRICHOS; BRICHOS protein) HMSQKHTEMVLEMSIGAPEAQQRLALSEHLVTTATFSIGSTGLVVYDYQQLLIAYKPAPGTCCYIMKIAPESIPSLEALNRKVHNFQMECSLQAKPAVPTSKLGQAEGRDAGSAPSGGDPAFLGMAVNTLCGEVPLYYI | – | – |
| – | – | – | – | – | binds | binds | CTproSP-C, the C-terminal domain of lung surfactant protein C precursor (residues 59-197 of human proSP-C) (other, also called CTC; recombinant CTC) HMSQKHTEMVLEMSIGAPEAQQRLALSEHLVTTATFSIGSTGLVVYDYQQLLIAYKPAPGTCCYIMKIAPESIPSLEALNRKVHNFQMECSLQAKPAVPTSKLGQAEGRDAGSAPSGGDPAFLGMAVNTLCGEVPLYYI | no binding (tested: 30 µM CTC and 40 µM peptide) | – |
| – | – | – | – | – | – | – | crystallised proSP-C BRICHOS trimer (seleno-methionylated CTC after in situ proteolysis with trypsin, residues 82-160 and 168-197 of proSP-C) (other, seleno-methionylated protein; seleno-methionylated protein; disulfide bridge Cys121-Cys189 to the second chain, There are two trimers per asymmetric unit, and data extend to 2.1 Å; Residues about 149-180 are not modelled; also called crystallized protein) chain 1: LALSEHLVTTATFSIGSTGLVVYDYQQLLIAYKPAPGTCCYIMKIAPESIPSLEALNRKVHNFQMECSLQAKPAVPTSK chain 2: DAGSAPSGGDPAFLGMAVNTLCGEVPLYYI | – | binds |
